# Assay results published in paper PMC3680494, “Genomics-Guided Analysis of NAD Recycling Yields Functional Elucidation of COG1058 as a New Family of Pyrophosphatases” (PLoS ONE, 2013).
# Substrate: Nc1ncnc2c1ncn2[C@@H]1O[C@H](CO[P@](=O)(O)O[P@](=O)(O)OC[C@H]2O[C@@H](n3cnc4c(N)ncnc43)[C@H](O)[C@@H]2O)[C@@H](O)[C@H]1O
# Assay: HPLC of mononucleotide formed, Michaelis-Menten fit
# Type: biochemical, Agrobacterium fabrum
# Conditions: pH 7.5 (100 mM TRIS/HCl), 1 mM CoCl2, 100 mM KCl, 37°C
protein,measurement,value
"AtCOG1058 (Agrobacterium fabrum str. C58) (protein, stand-alone COG1058 protein cloned from genomic DNA in pET100/D-TOPO; N-terminal His tag; E. coli BL21(DE3); HisTrap purified) MSNPSSTSSVVTAAMLAIGDELLSGRTKDKNIGHLADVLTMSGIDLKEVRIVADEEESIVEALNALRSRYDYVFTSGGIGPTHDDITADAISAAFGLPCEHDAEALRLLGDMYRVREMEFTEARKRMARMPKGAAHIANPVSVAPGFVIGNVYVMAGVPQVFQAMLDNVMPTLRTGAKVMSQAVRSPYGEGDIGTPLTAIQKAHPETSIGSYPKYDGQRFSTEIVVRARDAGLLKAATEAVAAMIEAIGQEKQLAASKGDATA",Km,210 ± 22 µM
same,kcat,5.6 ± 0.7 s⁻¹
